Among the data in publication PMC4141209 are Km and kcat values, retold here.

Substrate in the data set: O=C(O)[C@H]1NCC[C@@H]1O
Put plainly: purified protein. Particulars: pH 8.0 Tris-HCl, 50 °C, 0.15 mM NADH, TlLhpI as coupling enzyme.

B1: TlLhpH (Thermococcus litoralis DSM 5473) (protein)
chain: MFKKLENLEKWEPPKDWMVIKTLDTHTAGEPLRIILSGFPEIPGKTILEKRRYLMENLDHLRKALMWEPRGHADMYGAIITEPVSEEADFGVIFMHNEGYSTMCGHATIALGKVAVECGLVEAKEPITEIKMDSPAGLIKIYVKVRDGKVEKVYFHNVPSFVLFKDETINVPGIGEVKYDLAYGGAFYAFVNAEEIGLKCTPEYYRQLIDVGMKIKRAIMSEKEIRHPFEEDLSFLYGTIFIGEPEDENSHSRHVCIFADGEVDRSPTGTGVSARLAILYEKGEIDIGEEITIESIIGTKFTGKVVEETRYGLYRAIIPEVGGNAYIVAKNTFLIDPQDPLKYGFFLR
In the case of B1, the Km was 288 µM and the kcat was 28.5 s⁻¹.

One may read the Km as the concentration of substrate that gives half-maximal velocity. Usually kcat stands for the maximal rate divided by the concentration of active sites.
